The data set relates to LdTOP1L/S large subunit (LdTOP1L);LdTOP1L/S small subunit (LdTOP1S) (Leishmania donovani;Leishmania donovani). Kind of data set: EMSA. Background: A gel shift assay detects complexes by their altered migration in electrophoresis.

In the case of “GAAAAAAGACTTAGAAAAATTTTTA (double strand)”, the binding signal (% of input DNA bound) was determined as 79.

These data come from article PMC3082896.
